{"source": "paper PMC10600506", "target": "SARS-CoV-2 Omicron BA.1 Spike receptor-binding domain (SARS-CoV-2 Omicron BA.1)", "assay": "BLI; RBD1 with hACE2, 'with the same assay condition' as Nb4 with RBD1"}
{"substance": "angiotensin-converting enzyme 2, extracellular (from UniProt Q9BYF1 20-615) (receptor)", "values": [{"measurement": "Kd", "result": 9, "unit": "nM"}]}
